{"source": "patent US20210340276A1", "about": "(Astellas, published 2021)", "test_in_all_cases": "ELISA, MUC1 peptide immobilized on 384-well plate, HRP anti-human Igκ detection, luminescence", "key": {"[1]": {"target": "T1, Human cancer-specific MUC1 peptide (PTL 1) (human)", "T1 construct": "Immobilized at 0.5 µmol/L per well on a 384-well ELISA plate", "protocol": "(§1) Human cancer-specific MUC1 peptide (PTL 1) was immobilized at 0.5 μmol/L per well onto a 384-well ELISA plate. The resultant was reacted with each anti-human MUC1 antibody Fab fragment conjugate described above (sample No. 5, 6, 7, or 3) and then reacted with a horseradish peroxidase-labeled goat anti-human Igκ antibody (Southern Biotechnology Associates, Inc.) as a secondary antibody. ECL Prime Western Blotting Detection Reagent (GE Healthcare Japan Corp.) was added thereto for luminescence, and the degree of the luminescence was examined.\n(§2) Likewise, binding activity evaluation was also conducted as to the anti-human MUC1 antibody Fab fragment conjugates given below."}, "[2]": {"target": "T1, Human cancer-specific MUC1 peptide (PTL …)", "protocol": "as §1", "remark": "listed apart in the source"}, "[3]": {"target": "T1, Human cancer-specific MUC1 peptide (PTL …)", "protocol": "as §1, §2", "remark": "listed apart in the source"}}, "note": "Like-named read-outs stand apart in the source and are kept apart here.", "data": [{"binder": "P10-2 Fab (Fab, V domains shown, heavy chain N-terminal glutamine modified into pyroglutamic acid in a great majority of purified antibodies (Example 2), expressed in Expi293F cells, purified with KappaSelect; also called anti-human MUC1 antibody Fab fragment P10-2) VH: QVQLVQSGAEVKKPGASVKVSCKASGYTFTNYGLSWVRQAPGQGLEWMGENHPGSGIIYHNEKFRGRVTLTADRSTSTAYMELSSLRSEDTAVYYCARSSGTRGFDYWGQGTLVTVSS VL: DVVMTQTPLSLSVTPGQPASISCRSSQSIVHSNGNTYLEWYLQKPGQSPQLLIYRVSNRFSGVPDRFSGSGSGTDFTLKISRVEAEDVGVYYCFQGSHGPWTFGQGTKLEIKR", "values": [{"measurement": "EC50", "setting": "[1]", "result": 0.16, "unit": "nM"}, {"measurement": "EC50", "setting": "[2]", "result": 0.23, "unit": "nM"}, {"measurement": "EC50", "setting": "[3]", "result": 0.17, "unit": "nM"}]}]}
